From FireProtDB (doi:10.1021/bi9912950) come the findings set out here.

For this data set the following is noted: Bos taurus, 25 °C, CD, Ammonium acetate 0.1 M, reversible: yes, whole UniProt chain shown.

Values joined by “and” are separate entries in the source; they are usually repeats but may differ in a detail not shown here. Identical values can stand only once.

B1: Oxytocin-neurophysin 1 wild type, P01175 (protein)
chain: MAGSSLACCLLGLLALTSACYIQNCPLGGKRAVLDLDVRTCLPCGPGGKGRCFGPSICCGDELGCFVGTAEALRCQEENYLPSPCQSGQKPCGSGGRCAAAGICCSPDGCHEDPACDPEAAFSQH
For B1, the denaturant m value is, setting by setting: (pH 6, GdnHCl) 1.6 kcal/mol/M and 1.1 kcal/mol/M; (pH 8, GdnHCl) 1.5 kcal/mol/M and 1.1 kcal/mol/M; (pH 8, Urea) 0.7 kcal/mol/M and 0.4 kcal/mol/M; (pH 10, GdnHCl) 0.9 kcal/mol/M and 1 kcal/mol/M. The unfolding free energy reads like this: (pH 6, GdnHCl) 6.8 kcal/mol and 3.1 kcal/mol; (pH 8, GdnHCl) 4.9 kcal/mol and 3 kcal/mol; (pH 8, Urea) 4.4 kcal/mol and 2.4 kcal/mol; (pH 10, GdnHCl) 2.7 kcal/mol and 2.6 kcal/mol.
